One block for each binder: values may come before it.
Key:
Assay in all cases: SPR
[1] = target: T1, TIE1 ECD-Fc (human, UniProt P35590 22-759, biotin on the AviTag (as SPR ligand))
T1 sequence: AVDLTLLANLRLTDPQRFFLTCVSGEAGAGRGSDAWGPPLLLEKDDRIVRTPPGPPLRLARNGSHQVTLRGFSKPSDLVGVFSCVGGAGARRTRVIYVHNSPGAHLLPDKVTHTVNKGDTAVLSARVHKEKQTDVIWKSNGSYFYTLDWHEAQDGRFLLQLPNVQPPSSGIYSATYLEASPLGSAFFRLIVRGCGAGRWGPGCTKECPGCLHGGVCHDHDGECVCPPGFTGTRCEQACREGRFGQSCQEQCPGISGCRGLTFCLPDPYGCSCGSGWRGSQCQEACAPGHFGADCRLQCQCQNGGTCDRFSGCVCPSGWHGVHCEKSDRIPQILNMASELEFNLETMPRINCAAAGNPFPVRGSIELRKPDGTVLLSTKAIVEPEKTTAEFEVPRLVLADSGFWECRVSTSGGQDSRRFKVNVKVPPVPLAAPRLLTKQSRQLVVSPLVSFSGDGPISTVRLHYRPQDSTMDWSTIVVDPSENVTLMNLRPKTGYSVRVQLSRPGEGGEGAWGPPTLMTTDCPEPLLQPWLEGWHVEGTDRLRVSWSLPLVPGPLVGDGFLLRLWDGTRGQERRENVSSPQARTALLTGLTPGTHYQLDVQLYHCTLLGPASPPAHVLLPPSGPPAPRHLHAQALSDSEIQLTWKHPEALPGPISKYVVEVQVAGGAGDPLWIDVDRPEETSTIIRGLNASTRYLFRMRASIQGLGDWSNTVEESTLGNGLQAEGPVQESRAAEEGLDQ

[2] = target: T2, PTPRS ECD-Fc (human, UniProt Q13332 30-1282)
T2 sequence: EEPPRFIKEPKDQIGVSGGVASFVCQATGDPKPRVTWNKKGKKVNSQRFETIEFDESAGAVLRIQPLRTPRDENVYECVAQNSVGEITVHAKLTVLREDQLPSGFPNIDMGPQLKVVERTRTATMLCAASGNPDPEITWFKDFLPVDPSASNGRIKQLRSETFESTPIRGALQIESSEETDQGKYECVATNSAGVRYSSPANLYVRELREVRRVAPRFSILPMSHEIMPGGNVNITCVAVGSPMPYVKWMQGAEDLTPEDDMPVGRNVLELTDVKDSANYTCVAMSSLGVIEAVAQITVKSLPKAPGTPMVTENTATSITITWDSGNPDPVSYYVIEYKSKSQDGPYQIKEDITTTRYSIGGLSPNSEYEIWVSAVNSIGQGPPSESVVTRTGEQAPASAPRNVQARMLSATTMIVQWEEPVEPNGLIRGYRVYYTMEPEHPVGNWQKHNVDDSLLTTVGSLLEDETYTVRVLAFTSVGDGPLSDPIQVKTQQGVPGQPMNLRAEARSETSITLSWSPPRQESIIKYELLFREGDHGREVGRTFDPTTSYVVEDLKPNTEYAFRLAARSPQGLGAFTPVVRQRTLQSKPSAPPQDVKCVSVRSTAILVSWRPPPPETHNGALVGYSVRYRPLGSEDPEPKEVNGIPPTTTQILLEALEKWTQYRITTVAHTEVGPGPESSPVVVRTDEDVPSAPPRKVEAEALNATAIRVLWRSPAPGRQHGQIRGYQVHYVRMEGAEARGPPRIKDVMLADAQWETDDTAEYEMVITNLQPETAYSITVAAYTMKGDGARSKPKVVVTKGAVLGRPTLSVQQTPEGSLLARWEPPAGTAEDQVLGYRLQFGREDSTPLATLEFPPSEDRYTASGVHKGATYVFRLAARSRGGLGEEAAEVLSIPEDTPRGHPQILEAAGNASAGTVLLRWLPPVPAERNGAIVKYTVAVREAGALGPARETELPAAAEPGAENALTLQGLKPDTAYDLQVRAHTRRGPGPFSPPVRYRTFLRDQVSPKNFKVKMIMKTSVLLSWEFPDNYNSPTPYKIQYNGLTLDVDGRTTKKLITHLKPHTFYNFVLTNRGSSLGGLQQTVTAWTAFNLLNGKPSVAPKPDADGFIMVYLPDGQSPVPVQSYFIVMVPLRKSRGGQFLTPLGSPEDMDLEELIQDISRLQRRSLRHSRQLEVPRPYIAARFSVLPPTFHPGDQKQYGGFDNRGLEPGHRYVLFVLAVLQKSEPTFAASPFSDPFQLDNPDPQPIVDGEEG

[3] = target: T3, FGFR3 ECD-Fc (human, UniProt P22607 23-375)
T3 sequence: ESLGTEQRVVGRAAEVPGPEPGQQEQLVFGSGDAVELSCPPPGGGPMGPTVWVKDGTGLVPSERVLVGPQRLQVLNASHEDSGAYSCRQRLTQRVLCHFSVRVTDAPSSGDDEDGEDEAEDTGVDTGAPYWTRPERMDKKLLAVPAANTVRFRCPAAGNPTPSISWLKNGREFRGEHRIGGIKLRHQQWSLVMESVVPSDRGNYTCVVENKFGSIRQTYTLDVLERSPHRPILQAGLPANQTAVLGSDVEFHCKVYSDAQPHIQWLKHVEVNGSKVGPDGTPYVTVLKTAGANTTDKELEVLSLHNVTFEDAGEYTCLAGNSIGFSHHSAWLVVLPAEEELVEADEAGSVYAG

[4] = target: TIE2 ECD-Fc (human, UniProt Q02763 23-748, biotin on the AviTag (as SPR ligand))
[5] = target: T4, human ISLR2 ECD-Fc (human, UniProt Q6UXK2 19-589, biotin on the AviTag (as SPR ligand))
T4 sequence: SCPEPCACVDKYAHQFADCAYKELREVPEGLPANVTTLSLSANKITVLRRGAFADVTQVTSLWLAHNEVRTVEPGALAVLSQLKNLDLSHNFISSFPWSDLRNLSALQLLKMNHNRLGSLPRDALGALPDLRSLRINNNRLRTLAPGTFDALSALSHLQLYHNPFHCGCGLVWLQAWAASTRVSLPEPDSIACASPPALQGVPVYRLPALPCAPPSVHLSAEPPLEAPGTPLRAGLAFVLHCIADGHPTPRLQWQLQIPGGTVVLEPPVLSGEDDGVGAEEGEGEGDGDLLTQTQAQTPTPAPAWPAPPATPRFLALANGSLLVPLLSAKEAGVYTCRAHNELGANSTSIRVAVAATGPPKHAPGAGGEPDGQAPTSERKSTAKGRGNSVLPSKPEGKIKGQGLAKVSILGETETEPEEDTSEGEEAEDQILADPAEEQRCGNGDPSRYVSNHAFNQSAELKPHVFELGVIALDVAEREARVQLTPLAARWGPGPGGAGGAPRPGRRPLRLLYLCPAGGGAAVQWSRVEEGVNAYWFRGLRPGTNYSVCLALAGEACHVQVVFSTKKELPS

[6] = target: T5, IL-6Rα ECD-Fc (human, UniProt P08887 20-365, biotin on the AviTag (as SPR ligand))
T5 sequence: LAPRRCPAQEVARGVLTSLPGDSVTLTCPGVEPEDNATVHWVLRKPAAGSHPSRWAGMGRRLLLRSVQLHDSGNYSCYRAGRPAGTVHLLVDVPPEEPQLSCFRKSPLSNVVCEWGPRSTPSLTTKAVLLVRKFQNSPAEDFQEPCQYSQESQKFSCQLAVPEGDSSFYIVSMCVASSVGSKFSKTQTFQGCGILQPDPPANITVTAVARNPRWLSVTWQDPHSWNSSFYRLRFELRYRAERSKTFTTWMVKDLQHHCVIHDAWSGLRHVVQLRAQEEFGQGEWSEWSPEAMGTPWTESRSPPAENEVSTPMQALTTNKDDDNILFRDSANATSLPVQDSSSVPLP

[7] = target: T6, PRTG ECD-Fc (human, UniProt Q2VWP7 36-949)
T6 sequence: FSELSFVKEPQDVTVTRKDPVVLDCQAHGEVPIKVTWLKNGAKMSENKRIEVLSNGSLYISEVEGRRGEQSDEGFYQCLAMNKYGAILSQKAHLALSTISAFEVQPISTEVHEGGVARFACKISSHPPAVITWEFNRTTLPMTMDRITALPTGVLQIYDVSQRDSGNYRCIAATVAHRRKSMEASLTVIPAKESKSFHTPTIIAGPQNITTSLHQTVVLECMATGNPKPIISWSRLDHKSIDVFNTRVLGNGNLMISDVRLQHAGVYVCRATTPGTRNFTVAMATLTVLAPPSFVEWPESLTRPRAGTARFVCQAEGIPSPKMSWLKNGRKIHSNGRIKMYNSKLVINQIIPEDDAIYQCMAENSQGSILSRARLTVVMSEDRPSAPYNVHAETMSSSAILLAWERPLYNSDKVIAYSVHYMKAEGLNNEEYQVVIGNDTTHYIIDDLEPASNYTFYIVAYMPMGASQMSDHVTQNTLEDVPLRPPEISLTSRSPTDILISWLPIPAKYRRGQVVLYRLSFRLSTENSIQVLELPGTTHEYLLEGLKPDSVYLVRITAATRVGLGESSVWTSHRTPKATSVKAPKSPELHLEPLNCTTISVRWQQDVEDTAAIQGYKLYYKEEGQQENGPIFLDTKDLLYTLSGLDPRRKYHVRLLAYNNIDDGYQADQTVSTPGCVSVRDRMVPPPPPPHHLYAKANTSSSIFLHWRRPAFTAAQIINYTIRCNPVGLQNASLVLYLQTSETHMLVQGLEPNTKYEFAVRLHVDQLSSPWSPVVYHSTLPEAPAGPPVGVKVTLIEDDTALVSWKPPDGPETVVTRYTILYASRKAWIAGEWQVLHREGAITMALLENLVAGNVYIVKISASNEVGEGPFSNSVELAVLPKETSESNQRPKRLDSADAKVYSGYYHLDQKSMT

Sequence of TIE2 ECD-Fc (Q02763 23-748): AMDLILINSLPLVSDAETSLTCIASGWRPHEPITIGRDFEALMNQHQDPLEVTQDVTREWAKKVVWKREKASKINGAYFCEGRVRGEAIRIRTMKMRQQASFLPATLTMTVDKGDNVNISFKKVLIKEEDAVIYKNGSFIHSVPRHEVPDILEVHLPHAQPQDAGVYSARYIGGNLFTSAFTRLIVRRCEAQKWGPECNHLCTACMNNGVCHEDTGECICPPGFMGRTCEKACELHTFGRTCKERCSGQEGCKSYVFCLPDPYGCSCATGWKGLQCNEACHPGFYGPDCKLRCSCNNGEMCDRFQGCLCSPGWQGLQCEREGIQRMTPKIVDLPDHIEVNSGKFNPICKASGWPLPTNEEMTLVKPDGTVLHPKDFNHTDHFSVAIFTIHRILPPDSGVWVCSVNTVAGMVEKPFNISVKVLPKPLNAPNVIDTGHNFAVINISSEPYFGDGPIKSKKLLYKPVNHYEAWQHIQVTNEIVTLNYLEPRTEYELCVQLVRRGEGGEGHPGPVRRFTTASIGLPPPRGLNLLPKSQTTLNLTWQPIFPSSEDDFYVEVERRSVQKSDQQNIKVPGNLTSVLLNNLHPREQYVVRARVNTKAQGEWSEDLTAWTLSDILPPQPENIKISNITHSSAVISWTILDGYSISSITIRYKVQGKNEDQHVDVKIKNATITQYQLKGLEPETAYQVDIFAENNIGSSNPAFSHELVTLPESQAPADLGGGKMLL

B1: TrkA ECD-Fc (Fc fusion)
chain: AAPCPDACCPHGSSGLRCTRDGALDSLHHLPGAENLTELYIENQQHLQHLELRDLRGLGELRNLTIVKSGLRFVAPDAFHFTPRLSRLNLSFNALESLSWKTVQGLSLQELVLSGNPLHCSCALRWLQRWEEEGLGGVPEQKLQCHGQGPLAHMPNASCGVPTLKVQVPNASVDVGDDVLLRCQVEGRGLEQAGWILTELEQSATVMKSGGLPSLGLTLANVTSDLNRKNVTCWAENDVGRAEVSVQVNVSFPASVQLHTAVEMHHWCIPFSVDGQPAPSLRWLFNGSVLNETSFIFTEFLEPAANETVRHGCLRLNQPTHVNNGNYTLLAANPFGQASASIMAAFMDNPFEFNPEDPIPVSFSPVDTNSTSGDPVEKKDETPFGVSVAVG
modifications: biotin on the AviTag (in streptavidin-Alexa 647 tetramers)
binding result [1]: binds

B2: IL1RAPL2 ECD-Fc (Fc fusion)
chain: TNLKMVSKRNSVDGCIDWSVDLKTYMALAGEPVRVKCALFYSYIRTNYSTAQSTGLRLMWYKNKGDLEEPIIFSEVRMSKEEDSIWFHSAEAQDSGFYTCVLRNSTYCMKVSMSLTVAENESGLCYNSRIRYLEKSEVTKRKEISCPDMDDFKKSDQEPDVVWYKECKPKMWRSIIIQKGNALLIQEVQEEDGGNYTCELKYEGKLVRRTTELKVTALLTDKPPKPLFPMENQPSVIDVQLGKPLNIPCKAFFGFSGESGPMIYWMKGEKFIEELAGHIREGEIRLLKEHLGEKEVELALIFDSVVEADLANYTCHVENRNGRKHASVLLRKKDLIYK
modifications: biotin on the AviTag (as SPR ligand)
binding result [2]: binds | binding result [3]: binds

Results, then the binder that gave them:

binding result [4]: binds
B3: Recombinant Human Angiopoietin-1 Protein (ligand)
chain: HIGCSNQRRSPENSGRRYNRIQHGQCAYTFILPEHDGNCRESTTDQYNTNALQRDAPHVEPDFSSQKLQHLEHVMENYTQWLQKLENYIVENMKSEMAQIQQNAVQNHTATMLEIGTSLLSQTAEQTRKLTDVETQVLNQTSRLEIQLLENSLSTYKLEKQLLQQTNEILKIHEKNSLLEHKILEMEGKHKEELDTLKEEKENLQGLVTRQTYIIQELEKQLNRATTNNSVLQKQQLELMDTVHNLVNLCTKEGVLLKGGKREEEKPFRDCADVYQAGFNKSGIYTIYINNMPEPKKVFCNMDVNGGGWTVIQHREDGSLDFQRGWKEYKMGFGNPSGEYWLGNEFIFAITSQRQYMLRIELMDWEGNRAYSQYDRFHIGNEKQNYRLYLKGHTGTAGKQSSLILHGADFSTKDADNDNCMCKCALMLTGGWWFDACGPSNLNGMFYTAGQNHGKLNGIKWHYFKGPSYSLRSTTMMIRPLDF

binding result [5]: binds | binding result [6]: binds | binding result [7]: binds
B4: IGFBP7-Fc (Fc fusion)
chain: SSSDTCGPCEPASCPPLPPLGCLLGETRDACGCCPMCARGEGEPCGGGGAGRGYCAPGMECVKSRKRRKGKAGAAAGGPGVSGVCVCKSRYPVCGSDGTTYPSGCQLRAASQRAESRGEKAITQVSKGTCEQGPSIVTPPKDIWNVTGAQVYLSCEVIGIPTPVLIWNKVKRGHYGVQRTELLPGDRDNLAIQTRGGPEKHEVTGWVLVSPLSKEDAGEYECHASNSQGQASASAKITVVDALHEIPVKKGEGAEL
modifications: biotin on the AviTag (as SPR ligand)

binding result [5]: binds | binding result [6]: binds | binding result [7]: binds
B5: IGFBPL1-Fc (Fc fusion)
chain: LGIRDVGGRRPKCGPCRPEGCPAPAPCPAPGISALDECGCCARCLGAEGASCGGRAGGRCGPGLVCASQAAGAAPEGTGLCVCAQRGTVCGSDGRSYPSVCALRLRARHTPRAHPGHLHKARDGPCEFAPVVVVPPRSVHNVTGAQVGLSCEVRAVPTPVITWRKVTKSPEGTQALEELPGDHVNIAVQVRGGPSDHEATAWILINPLRKEDEGVYQCHAANMVGEAESHSTVTVLDLSKYRSFHFPAPDDRM
modifications: biotin on the AviTag (as SPR ligand)
